How the values were obtained:
calcium sensing receptor = calcium sensing receptor (UniProt Q9QY96); assay: cell-based or functional assay
GPR93 = GPR93 (UniProt Q149R9); assay: cell-based or functional assay
UniProt Q149R9, sequence (Q149R9 whole entry): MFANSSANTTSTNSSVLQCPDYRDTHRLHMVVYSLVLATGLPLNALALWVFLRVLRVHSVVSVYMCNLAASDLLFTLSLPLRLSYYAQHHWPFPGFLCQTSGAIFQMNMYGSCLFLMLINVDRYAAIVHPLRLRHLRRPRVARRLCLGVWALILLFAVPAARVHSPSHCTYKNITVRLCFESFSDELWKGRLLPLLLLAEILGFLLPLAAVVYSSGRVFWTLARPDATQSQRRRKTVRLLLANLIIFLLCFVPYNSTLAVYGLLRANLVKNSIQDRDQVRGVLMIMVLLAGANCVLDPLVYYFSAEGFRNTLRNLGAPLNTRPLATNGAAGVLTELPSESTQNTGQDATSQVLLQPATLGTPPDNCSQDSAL

UniProt Q9QY96, sequence (Q9QY96 20-1079 limits assumed): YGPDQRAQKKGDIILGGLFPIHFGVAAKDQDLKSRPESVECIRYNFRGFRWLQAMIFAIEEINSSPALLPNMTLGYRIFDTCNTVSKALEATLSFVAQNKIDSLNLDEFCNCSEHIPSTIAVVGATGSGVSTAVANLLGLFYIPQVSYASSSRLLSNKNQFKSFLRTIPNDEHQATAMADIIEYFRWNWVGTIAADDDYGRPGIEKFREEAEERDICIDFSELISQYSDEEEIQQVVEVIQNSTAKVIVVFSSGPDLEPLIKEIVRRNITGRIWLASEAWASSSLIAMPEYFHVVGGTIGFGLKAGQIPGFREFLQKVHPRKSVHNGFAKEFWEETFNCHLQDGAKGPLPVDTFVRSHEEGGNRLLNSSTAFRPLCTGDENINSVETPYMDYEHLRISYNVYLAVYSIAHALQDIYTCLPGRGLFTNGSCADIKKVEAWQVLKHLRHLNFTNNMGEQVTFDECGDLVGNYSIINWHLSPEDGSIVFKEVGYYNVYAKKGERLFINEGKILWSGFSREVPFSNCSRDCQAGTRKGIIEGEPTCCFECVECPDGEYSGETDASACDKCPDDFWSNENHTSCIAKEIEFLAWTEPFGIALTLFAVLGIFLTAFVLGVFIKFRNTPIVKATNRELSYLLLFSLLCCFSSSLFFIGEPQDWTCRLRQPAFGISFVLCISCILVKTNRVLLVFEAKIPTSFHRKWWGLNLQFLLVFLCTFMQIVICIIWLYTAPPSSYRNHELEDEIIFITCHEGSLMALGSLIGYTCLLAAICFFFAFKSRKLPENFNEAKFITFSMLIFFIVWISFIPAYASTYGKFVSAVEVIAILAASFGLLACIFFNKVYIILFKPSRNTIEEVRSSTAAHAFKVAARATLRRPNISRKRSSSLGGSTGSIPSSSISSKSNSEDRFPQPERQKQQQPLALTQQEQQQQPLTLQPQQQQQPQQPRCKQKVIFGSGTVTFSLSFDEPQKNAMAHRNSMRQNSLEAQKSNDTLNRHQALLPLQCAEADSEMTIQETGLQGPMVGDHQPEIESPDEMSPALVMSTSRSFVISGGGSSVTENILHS

CCK secretion by STC-1 cells (ELISA), peptide at 0.125 mM with NPS2143 at 6 µM (198 pM with vehicle) (calcium sensing receptor): 88 pM
CCK secretion by STC-1 cells (ELISA), peptide at 0.125 mM with TC LPA5 4 at 4 µM (198 pM with vehicle) (GPR93): 111 pM
Substance: synthetic peptide SEQ ID NO: 5 90RYLGYLE96, derived from αs1-casein
